Test results from the supplement of paper PMC9170038.

Experiments:
[1] = system: MS2 coat protein; test: apparent KD of MS2 coat protein, switch ON state; designed switch direction (-1 OFF switch, 1 ON switch): 1; higher = weaker reporter binding; details: FMN input: 0 or 200 uM; Eterna round: R93 (includes R88 designs)
In short: (§1)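 Titrations with SNAP-549-labelled MS2 coat protein ran in twofold steps from 0.7 or 1.5 nM to 3 µM, each step taking 0.8–1.5 h at the start and 10–20 min toward the end. The targets were designed RNA switches transcribed on-chip from Illumina sequencing clusters, held in 100 mM Tris-HCl pH 7.5, 80 mM KCl, 4 mM MgCl2, without or with constant ligand. Apparent KD was taken per design as the median of normalised cluster binding-curve fits.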

[2] = system: MS2 coat protein; test: apparent KD of MS2 coat protein, switch OFF state (with FMN for OFF switches, without FMN for ON switches); designed switch direction (-1 OFF switch, 1 ON switch): 1; higher = weaker reporter binding; details: FMN input: 0 or 200 uM; Eterna round: R93 (includes R88 designs)
In short: as §1

AGGAGACAUGAGGAUCACCCAUGUGCACGUGGAGGAGGAUAUGCUAGUAGAAGAUAGAAAGCAGAAGGCCUAAGAA [mod of top voted: #2]
apparent KD of MS2 coat protein [1]: 44.3 nM | apparent KD of MS2 coat protein [2]: 37.2 nM

AAAAAAAAAGUAUAGGAUAUCCGAGUGGUAACAUGAGGAUCACCCAUGUGAAGAAAGGAAGAUGAGGAGAAGGAUACAAAAAAAAA [Mod of Mat of Nando]
apparent KD of MS2 coat protein [1]: 27.9 nM | apparent KD of MS2 coat protein [2]: 65.3 nM

AACAACAAUAUGAAGGAUAUCCACAACAAGACAUGAGGAUCACCCAUGUAAACAAAGAACAUACAGGAGAAGGUCAAGGGUGAAA [JR_SS002_Sub1203]
apparent KD of MS2 coat protein [1]: 56.2 nM | apparent KD of MS2 coat protein [2]: 39 nM

AGGAGACAUGAGGAUCACCCAUGUGAGAAGAGGCGAGGAUAUCGAAAGAAAGAAGAGAAACGAGAAGGCGCGAGGU [salish99-SS1-023]
apparent KD of MS2 coat protein [1]: 23.6 nM | apparent KD of MS2 coat protein [2]: 36.7 nM

AAAAUACAUGAGGAUCACCCAUGUGAAAAUAUGGGAGGAUAUACAAACACGAAAGUGAAAGUAGAAGGCCUAAAAA [SS! MT 15]
apparent KD of MS2 coat protein [1]: 51.6 nM | apparent KD of MS2 coat protein [2]: 231 nM

AGAAAGAAAAGAGAGGAUAUCUAAAAGAAAACAUGAGGAUCACCCAUGUAAAAGAAAAGAAAAUGGGAGAAGGCUCAUGAGAAAG [JL Skelter Mod 7 In the Red]
apparent KD of MS2 coat protein [1]: 101 nM | apparent KD of MS2 coat protein [2]: 59.7 nM

GGAGCCGGUACUGAGGAUAUUCAUAUUAAAACAUGAGGAUCACCCAUGUAGGCCAGAAGGCCUUGGGAGAAGGCAGACCAGCUCG [Atgexeedri]
apparent KD of MS2 coat protein [1]: 19.1 nM | apparent KD of MS2 coat protein [2]: 273 nM

GAAAUAAAAACACAGGAUAUCCAAAAGAAAACAUGAGGAUCACCCAUGUAAAGAAAAUAAAAAUGGGAGAAGGGUGAAAAUAAAA [Mat - Same State 2 - JL mod - D26]
apparent KD of MS2 coat protein [1]: 15.8 nM | apparent KD of MS2 coat protein [2]: 41.3 nM

GAAAAACAUGAGGAUCACCCAUGUAGAAAUAUGGGAGGAUAUACAAAGACGAAAGUCAAAGUAGAAGGCCUAAAAG [Mat - Mod of Eli]
apparent KD of MS2 coat protein [1]: 23.9 nM | apparent KD of MS2 coat protein [2]: 69.3 nM

GCCUAACAUGAGGAUCACCCAUGUAGUGGGUUGUUAGGAUAUGGGCCGUGUAACACUGCACCAGAAGGAAUAGAAG [Atinanqu]
apparent KD of MS2 coat protein [1]: 382 nM | apparent KD of MS2 coat protein [2]: 532 nM

GGGUAAGAGAGAGAGGAUAUCCAAAGGAAAACAUGAGGAUCACCCAUGUAGAAGGUAGGAAAUUGGGAGAAGGCUCAAGAGAGAG [salish99-ss2-136]
apparent KD of MS2 coat protein [1]: 29.8 nM | apparent KD of MS2 coat protein [2]: 29.7 nM

GGCUGCGAUGUGAAGGAUAUCCGCGACUGGACAUGAGGAUCACCCAUGUAUGCUUGGAACAUGCCGGAGAAGGUCACGAAUGAUU [JR_SS002_Sub1216]
apparent KD of MS2 coat protein [1]: 18.7 nM | apparent KD of MS2 coat protein [2]: 30.2 nM

ACUUCACAUGAGGAUCACCCAUGUCAGGCCGGACUAGGAUAUUAUCAAGCAGCGUAACCAUAAGAAGGAGUAGGAA [JR_SS001_Sub313]
apparent KD of MS2 coat protein [1]: 57.7 nM | apparent KD of MS2 coat protein [2]: 82.5 nM

AGGAGACAUGAGGAUCACCCAUGUGAGAAGAGGCGAGGAUAUCGAAAGAAAGAAGAGAAACGAGAAGGCGCGAGCU [salish99-SS1-024]
apparent KD of MS2 coat protein [1]: 24.4 nM | apparent KD of MS2 coat protein [2]: 29.6 nM

AAGAGAAGAACUGAGGAUAUCAGGGAUGGUACAUGAGGAUCACCCAUGUUGGCAAGCGAAGAAACUGAGAAGGCAGAGAAGAAGAA [JR_SameState2_Sub6]
apparent KD of MS2 coat protein [1]: 29.4 nM | apparent KD of MS2 coat protein [2]: 34.3 nM

AAUAAACAUGAGGAUCACCCAUGUAGAAACAUGGGAGGAUAUACAAAGACGAAAGUCAAAGUAGAAGGCCUAAUAA [Mat - Same State 1 - Mod - D167]
apparent KD of MS2 coat protein [1]: 92.7 nM | apparent KD of MS2 coat protein [2]: 42.4 nM

ACAAACAAAAAAGAGGAUAUCCAAAACAAAACAUGAGGAUCACCCAUGUAAAAGAAAAGAAAAUGGGAGAAGGCUUACAACAAAC [SS2 M 22]
apparent KD of MS2 coat protein [1]: 19.4 nM | apparent KD of MS2 coat protein [2]: 28.2 nM

AAAAUAAAAAGGUAGGAUAUGGGUAAGUCUACAUGAGGAUCACCCAUGUAAUAAAAAGAAAAAAACCAGAAGGACCAAAAUAAAA [72%, More Wateronthemoon, 11]
apparent KD of MS2 coat protein [1]: 20.2 nM | apparent KD of MS2 coat protein [2]: 50.1 nM

AGGAAACAUGAGGAUCACCCAUGUAAAAAAUAGGGAGGAUAUACUAGAAGAAACAAAAUAGUAGAAGGCUCAAAAA [75%, Ex sub1, 25]
apparent KD of MS2 coat protein [1]: 12.9 nM | apparent KD of MS2 coat protein [2]: 30 nM

AGGAAACAUGAGGAUCACCCAUGUAAAAAUAUGGGAGGAUAUUGGAAUAAAAUAAAGAACCGAGAAGGCCUAAAAA [59%, Flamingo, 6]
apparent KD of MS2 coat protein [1]: 32.3 nM | apparent KD of MS2 coat protein [2]: 219 nM

AGAAAUAAAAGAGAGGAUAUCCAAAAGAAAACAUGAGGAUCACCCAUGUACACGAAAGUGAAAUGGGAGAAGGCUCAAAAUAAAG [80% More Helter Skelter 2 + Hairpin]
apparent KD of MS2 coat protein [1]: 121 nM | apparent KD of MS2 coat protein [2]: 536 nM

AAAAAAAAAGUAGAGGAUAUCCGAGUGGUAACAUGAGGAUCACCCAUGUGAAGAAAGGAACAUGAGGAGAAGGCUACAAAAAAAAA [Normal (18/17)]
apparent KD of MS2 coat protein [1]: 11.9 nM | apparent KD of MS2 coat protein [2]: 30.4 nM

AAAAAACAUGAGGAUCACCCAUGUAUAAAAUGGGAAGGAUAUACUAAGACGAAAGUCAUAGUAGAAGGUCCAAAAA [76%, Meechl, 12]
apparent KD of MS2 coat protein [1]: 44.5 nM | apparent KD of MS2 coat protein [2]: 193 nM

AAGCAACAUGAGGAUCACCCAUGUAGCAGGGUCAGAGGAUAUUUGAUCUUGGCAAGGGUUAAAGAAGGUUGAUAAA [Rianqu]
apparent KD of MS2 coat protein [1]: 264 nM | apparent KD of MS2 coat protein [2]: 140 nM

CACCCGUGUAUGAAGGAUAUGUAGACCCUGACAUGAGGAUCACCCAUGUAACUGUGGGUCCCAUCGCAGAAGGUCGAGACACGGG [Ribitite]
apparent KD of MS2 coat protein [1]: 22.4 nM | apparent KD of MS2 coat protein [2]: 180 nM

CGUCUACAUGAGGAUCACCCAUGUCAAGAGUGGUCAGGAUAUGGUAUUAGAUGAGUAUGGCCAGAAGGGACAUAAG [JR_SS001_Sub715]
apparent KD of MS2 coat protein [1]: 167 nM | apparent KD of MS2 coat protein [2]: 386 nM

UAAAAACAUGAGGAUCACCCAUGUGAGAACAUGGGAGGAUAUACGAGGACGAAAGUCAAAGUAGAAGGCCUAAAAG [Garnet 84]
apparent KD of MS2 coat protein [1]: 272 nM | apparent KD of MS2 coat protein [2]: 101 nM

AAAAAACAUGAGGAUCACCCAUGUAAAAAAAACACAGGAUAUCCCUAAAAAAAAAAAAAAGGAGAAGGGUGAAAAA [Nob's Hobby 2 - Jieux - Same State 1]
apparent KD of MS2 coat protein [1]: 21.3 nM | apparent KD of MS2 coat protein [2]: 29.8 nM

AAACCACAUGAGGAUCACCCAUGUAAGAUAUACAUAGGAUAUGCGAAAAGAAACAAAGAAGCAGAAGGGUGGAAAA [75%, Ex sub1, 15]
apparent KD of MS2 coat protein [1]: 100 nM | apparent KD of MS2 coat protein [2]: 54.9 nM

GUAUAUAUGAGGUAGGAUAUCCAAAAUAAAACAUGAGGAUCACCCAUGUAAAUAAAUAAUAAAUGGGAGAAGGACCACAUAUAUAC [Ex6 sub 3]
apparent KD of MS2 coat protein [1]: 16.2 nM | apparent KD of MS2 coat protein [2]: 34.2 nM

AAGAAACAUGAGGAUCACCCAUGUGAUAAUAUGGGAGGAUAUACGAAGACGAAAGACGAAGUAGAAGGCCUAAGAA [Garnet 46]
apparent KD of MS2 coat protein [1]: 45.3 nM | apparent KD of MS2 coat protein [2]: 138 nM

UAUCCGGCAGUGUAGGAUAUGUUGUAGUAAACAUGAGGAUCACCCAUGUGGAUUAUAUAAGAUUCACAGAAGGGCACUGCAUUGC [Laonis]
apparent KD of MS2 coat protein [1]: 265 nM | apparent KD of MS2 coat protein [2]: 226 nM

AAAGACAUAGUUCAGGAUAUGGUAAUAGUCACAUGAGGAUCACCCAUGUUCUUUUAUAAGAACGAUCAGAAGGGAGGUAAAAAAA [SameState2 Malc#14]
apparent KD of MS2 coat protein [1]: 151 nM | apparent KD of MS2 coat protein [2]: 282 nM

GGGCAAGAGAGAGAGGAUAUCCAAAGGAAAACAUGAGGAUCACCCAUGUAGAAGGUAGGAAAUUGGGAGAAGGCUCAAGAGAGAG [salish99-ss2-137]
apparent KD of MS2 coat protein [1]: 8.51 nM | apparent KD of MS2 coat protein [2]: 12.6 nM

AGAAAACAUGAGGAUCACCCAUGUAGAAAUAUGGGAGGAUAUACAUAGACGAAAGUCAUAGUAGAAGGCCUAAAGA [Mat - Same State 1 - Meechl mod - D128]
apparent KD of MS2 coat protein [1]: 15 nM | apparent KD of MS2 coat protein [2]: 49.4 nM

CGGAGACAUGAGGAUCACCCAUGUGAGAAGAGGCGAGGAUAUCGAAAGAAAGAAGAGAAACGAGAAGGCGCGAGAC [salish99-SS1-077]
apparent KD of MS2 coat protein [1]: 17.7 nM | apparent KD of MS2 coat protein [2]: 26.7 nM

AAUAUAUUAUUUAAGGAUAUCAUAGGAAACACAUGAGGAUCACCCAUGUGGGAAACUUGGUCGGGUGAGAAGGUGGAUAAUAUAU [Samwise Clockwise 36 - Jieux - Same State 2]
apparent KD of MS2 coat protein [1]: 17.4 nM | apparent KD of MS2 coat protein [2]: 24.6 nM

AAUCCAAAUAGUUAGGAUAUGGGAAUAAAAACAUGAGGAUCACCCAUGUAAUUGAAACAAGUUAACCAGAAGGGACAGGGUGAAA [JR_SS002_Sub210]
apparent KD of MS2 coat protein [1]: 67.5 nM | apparent KD of MS2 coat protein [2]: 16.6 nM

AUAGAACAUGAGGAUCACCCAUGUAAAAAAGCAUGAGGAUAUAUAAGUAAAUAAAAUAAGAUAGAAGGCAUGAUAA [JR_SS001_Sub1701]
apparent KD of MS2 coat protein [1]: 52 nM | apparent KD of MS2 coat protein [2]: 91.4 nM

AGGAAACAUGAGGAUCACCCAUGUAAAGAUGGGCGAGGAUAUCGAAAGAAAAGAAAGAAACGAGAAGGCGCAAAAG [Flamingo]
apparent KD of MS2 coat protein [1]: 43.7 nM | apparent KD of MS2 coat protein [2]: 240 nM

AUAAGACAUGAGGAUCACCCAUGUAUAAGAGCAUGAGGAUAUAUGAAAAGUAAUAGGAGAAUAGAAGGCAUAGUUG [JR_SS001_Sub1220]
apparent KD of MS2 coat protein [1]: 80.7 nM | apparent KD of MS2 coat protein [2]: 92.4 nM

AGAAAACAUGAGGAUCACCCAUGUAGAAAUAUGGGAGGAUAUACGAAGACGAAAGUCGAAGUAGAAGGCCUAAAGA [Mat - Same State 1 - Meechl mod - D126]
apparent KD of MS2 coat protein [1]: 23.2 nM | apparent KD of MS2 coat protein [2]: 50.8 nM

AUUUUACAUGAGGAUCACCCAUGUUUUGGUGGAUCAGGAUAUAGAUUGAAUGAGUUUUAGCUAGAAGGGAUAUAUA [JR_SS001_Sub506]
apparent KD of MS2 coat protein [1]: 111 nM | apparent KD of MS2 coat protein [2]: 110 nM
